{
  "source": "patent US20160264649A1",
  "assay_in_all_cases": "cell-based or functional assay",
  "key": {"[1]": {"biological_target": "HIV-1 92RW020 Env (HIV-1)"}, "[2]": {"biological_target": "HIV-1 92UG024 Env (HIV-1)"}, "[3]": {"biological_target": "HIV-1 93IN905 Env (HIV-1)"}, "[4]": {"biological_target": "HIV-1 93IN905 Env on pseudovirus (HIV-1)"}, "[5]": {"biological_target": "HIV-1 93MW959 Env on pseudovirus (HIV-1)"}, "[6]": {"biological_target": "HIV-1 93UG077 Env (HIV-1)"}, "[7]": {"biological_target": "HIV-1 97ZA012 Env on pseudovirus (HIV-1)"}, "[8]": {"biological_target": "HIV-1 APV-6 Env (HIV-1)"}, "[9]": {"biological_target": "HIV-1 CMU02 Env (HIV-1)"}, "[10]": {"biological_target": "HIV-1 IAVI-C18 Env (HIV-1)"}, "[11]": {"biological_target": "HIV-1 JRCSF Env on pseudovirus (HIV-1) (UniProt P20871)"}, "[12]": {"biological_target": "HIV-1 LAVI_C3 Env on pseudovirus (HIV-1)"}, "[13]": {"biological_target": "HIV-1 MGRM-AE-005 Env (HIV-1)"}, "[14]": {"biological_target": "HIV-1 MGRM-AE-007 Env (HIV-1)"}, "[15]": {"biological_target": "HIV-1 MGRM-AE-008 Env (HIV-1)"}, "[16]": {"biological_target": "HIV-1 MGRM-AG-002 Env (HIV-1)"}, "[17]": {"biological_target": "HIV-1 MGRM-AG-005 Env (HIV-1)"}, "[18]": {"biological_target": "HIV-1 MGRM-AG-009 Env (HIV-1)"}, "[19]": {"biological_target": "HIV-1 MGRM-AG-011 Env (HIV-1)"}, "[20]": {"biological_target": "HIV-1 MGRM-C-004 Env on pseudovirus (HIV-1)"}, "[21]": {"biological_target": "HIV-1 MGRM-C-005 Env on pseudovirus (HIV-1)"}, "[22]": {"biological_target": "HIV-1 MGRM-C-006 Env on pseudovirus (HIV-1)"}, "[23]": {"biological_target": "HIV-1 MGRM-C-007 Env on pseudovirus (HIV-1)"}, "[24]": {"biological_target": "HIV-1 MGRM-C-010 Env on pseudovirus (HIV-1)"}, "[25]": {"biological_target": "HIV-1 MGRM-C-012 Env on pseudovirus (HIV-1)"}, "[26]": {"biological_target": "HIV-1 MGRM-C-015 Env on pseudovirus (HIV-1)"}, "[27]": {"biological_target": "HIV-1 MGRM-C-022 Env on pseudovirus (HIV-1)"}, "[28]": {"biological_target": "HIV-1 MGRM-C-024 Env on pseudovirus (HIV-1)"}, "[29]": {"biological_target": "HIV-1 MGRM-Chronic-B-010 Env on pseudovirus (HIV-1)"}, "[30]": {"biological_target": "HIV-1 MGRM-Chronic-B-012 Env on pseudovirus (HIV-1)"}, "[31]": {"biological_target": "HIV-1 MGRM-Chronic-B-018 Env on pseudovirus (HIV-1)"}, "[32]": {"biological_target": "HIV-1 MGRM-Chronic-B-020 Env on pseudovirus (HIV-1)"}, "[33]": {"biological_target": "HIV-1 MGRM-Chronic-B-024 Env on pseudovirus (HIV-1)"}, "[34]": {"biological_target": "HIV-1 MGRM-D-001 Env (HIV-1)"}, "[35]": {"biological_target": "HIV-1 MGRM-D-004 Env (HIV-1)"}, "[36]": {"biological_target": "HIV-1 MGRM-D-012 Env (HIV-1)"}, "[37]": {"biological_target": "HIV-1 MGRM-D-019 Env (HIV-1)"}, "[38]": {"biological_target": "HIV-1 MGRM-D-026 Env (HIV-1)"}, "[39]": {"biological_target": "HIV-1 MGRM-F1-008 Env (HIV-1)"}, "[40]": {"biological_target": "HIV-1 MGRM-F1-010 Env (HIV-1)"}, "[41]": {"biological_target": "HIV-1 MGRM-F1-017 Env (HIV-1)"}, "[42]": {"biological_target": "HIV-1 MGRM-F1-020 Env (HIV-1)"}, "[43]": {"biological_target": "HIV-1 MGRM-F1-021 Env (HIV-1)"}, "[44]": {"biological_target": "HIV-1 MGRM-F1-023 Env (HIV-1)"}, "[45]": {"biological_target": "HIV-1 MGRM-G-001 Env (HIV-1)"}, "[46]": {"biological_target": "HIV-1 MGRM-G-004 Env (HIV-1)"}, "[47]": {"biological_target": "HIV-1 MGRM-G-016 Env (HIV-1)"}, "[48]": {"biological_target": "HIV-1 PVO.4 (Acute) Env on pseudovirus (HIV-1)"}, "[49]": {"biological_target": "HIV-1 SF162 Env on pseudovirus (HIV-1) (UniProt P19550)"}, "[50]": {"biological_target": "HIV-1 TRJ0.58 (Acute) Env on pseudovirus (HIV-1)"}},
  "data": [
    {"substance": "4E10 (antibody)", "values": [
      {"measurement": "neutralization IC50", "setting": "[1]", "value": 3.38, "unit": "µg/mL"},
      {"measurement": "neutralization IC90", "setting": "[1]", "value": 36.1, "unit": "µg/mL"},
      {"measurement": "IC50 (µg/ml), pseudovirus neutralization", "setting": "[2]", "value": 2.17, "unit": "µg/mL"},
      {"measurement": "neutralization IC50", "setting": "[2]", "value": 1.32, "unit": "µg/mL"},
      {"measurement": "neutralization IC90", "setting": "[2]", "value": 23.7, "unit": "µg/mL"},
      {"measurement": "neutralization IC50", "setting": "[3]", "value": 1.55, "unit": "µg/mL"},
      {"measurement": "neutralization IC90", "setting": "[3]", "value": 12.8, "unit": "µg/mL"},
      {"measurement": "IC50", "setting": "[4]", "value": 1.26, "unit": "µg/mL"},
      {"measurement": "IC50", "setting": "[5]", "value": 4.55, "unit": "µg/mL"},
      {"measurement": "neutralization IC50", "setting": "[6]", "value": 11.2, "unit": "µg/mL"},
      {"measurement": "neutralization IC90", "setting": "[6]", "value": "> 50", "unit": "µg/mL"},
      {"measurement": "IC50", "setting": "[7]", "value": 4.7, "unit": "µg/mL"},
      {"measurement": "neutralization IC50", "setting": "[8]", "value": 0.4, "unit": "µg/mL"},
      {"measurement": "IC50 (µg/ml), pseudovirus neutralization", "setting": "[9]", "value": 0.72, "unit": "µg/mL"},
      {"measurement": "neutralization IC50", "setting": "[9]", "value": 0.59, "unit": "µg/mL"},
      {"measurement": "neutralization IC90", "setting": "[9]", "value": 13.4, "unit": "µg/mL"},
      {"measurement": "neutralization IC50", "setting": "[10]", "value": "> 50", "unit": "µg/mL"},
      {"measurement": "neutralization IC90", "setting": "[10]", "value": "> 50", "unit": "µg/mL"},
      {"measurement": "IC50", "setting": "[11]", "value": 3.3, "unit": "µg/mL"},
      {"measurement": "IC50", "setting": "[12]", "value": 2.85, "unit": "µg/mL"},
      {"measurement": "IC50 (µg/ml), pseudovirus neutralization", "setting": "[13]", "value": 0.47, "unit": "µg/mL"},
      {"measurement": "IC50 (µg/ml), pseudovirus neutralization", "setting": "[14]", "value": 0.45, "unit": "µg/mL"},
      {"measurement": "IC50 (µg/ml), pseudovirus neutralization", "setting": "[15]", "value": 0.94, "unit": "µg/mL"},
      {"measurement": "IC50 (µg/ml), pseudovirus neutralization", "setting": "[16]", "value": 0.8, "unit": "µg/mL"},
      {"measurement": "IC50 (µg/ml), pseudovirus neutralization", "setting": "[17]", "value": 2.13, "unit": "µg/mL"},
      {"measurement": "IC50 (µg/ml), pseudovirus neutralization", "setting": "[18]", "value": 31.4, "unit": "µg/mL"},
      {"measurement": "IC50 (µg/ml), pseudovirus neutralization", "setting": "[19]", "value": 1.36, "unit": "µg/mL"},
      {"measurement": "IC50", "setting": "[20]", "value": 24.2, "unit": "µg/mL"},
      {"measurement": "IC50", "setting": "[21]", "value": 16.4, "unit": "µg/mL"},
      {"measurement": "IC50", "setting": "[22]", "value": 4.94, "unit": "µg/mL"},
      {"measurement": "IC50", "setting": "[23]", "value": 5.84, "unit": "µg/mL"},
      {"measurement": "IC50", "setting": "[24]", "value": 11, "unit": "µg/mL"},
      {"measurement": "IC50", "setting": "[25]", "value": 0.44, "unit": "µg/mL"},
      {"measurement": "IC50", "setting": "[26]", "value": 2.52, "unit": "µg/mL"},
      {"measurement": "IC50", "setting": "[27]", "value": 5.71, "unit": "µg/mL"},
      {"measurement": "IC50", "setting": "[28]", "value": 22.6, "unit": "µg/mL"},
      {"measurement": "IC50", "setting": "[29]", "value": 1.69, "unit": "µg/mL"},
      {"measurement": "IC50", "setting": "[30]", "value": 48, "unit": "µg/mL"},
      {"measurement": "IC50", "setting": "[31]", "value": 23.2, "unit": "µg/mL"},
      {"measurement": "IC50", "setting": "[32]", "value": 2.45, "unit": "µg/mL"},
      {"measurement": "IC50", "setting": "[33]", "value": 9.19, "unit": "µg/mL"},
      {"measurement": "IC50 (µg/ml), pseudovirus neutralization", "setting": "[34]", "value": 1.84, "unit": "µg/mL"},
      {"measurement": "IC50 (µg/ml), pseudovirus neutralization", "setting": "[35]", "value": 1.58, "unit": "µg/mL"},
      {"measurement": "IC50 (µg/ml), pseudovirus neutralization", "setting": "[36]", "value": 1.13, "unit": "µg/mL"},
      {"measurement": "IC50 (µg/ml), pseudovirus neutralization", "setting": "[37]", "value": 0.04, "unit": "µg/mL"},
      {"measurement": "IC50 (µg/ml), pseudovirus neutralization", "setting": "[38]", "value": 2.95, "unit": "µg/mL"},
      {"measurement": "IC50 (pseudovirus neutralization)", "setting": "[39]", "value": 2.75, "unit": "µg/mL"},
      {"measurement": "IC50 (pseudovirus neutralization)", "setting": "[40]", "value": 3.69, "unit": "µg/mL"},
      {"measurement": "IC50 (pseudovirus neutralization)", "setting": "[41]", "value": 4.92, "unit": "µg/mL"},
      {"measurement": "IC50 (pseudovirus neutralization)", "setting": "[42]", "value": 0.66, "unit": "µg/mL"},
      {"measurement": "IC50 (pseudovirus neutralization)", "setting": "[43]", "value": 1.87, "unit": "µg/mL"},
      {"measurement": "IC50 (pseudovirus neutralization)", "setting": "[44]", "value": 0.44, "unit": "µg/mL"},
      {"measurement": "IC50 (µg/ml), pseudovirus neutralization", "setting": "[45]", "value": 2.04, "unit": "µg/mL"},
      {"measurement": "IC50 (µg/ml), pseudovirus neutralization", "setting": "[46]", "value": 1.47, "unit": "µg/mL"},
      {"measurement": "IC50 (µg/ml), pseudovirus neutralization", "setting": "[47]", "value": 1.02, "unit": "µg/mL"},
      {"measurement": "IC50", "setting": "[48]", "value": 18.3, "unit": "µg/mL"},
      {"measurement": "IC50", "setting": "[49]", "value": 4.28, "unit": "µg/mL"},
      {"measurement": "IC50", "setting": "[50]", "value": 11.9, "unit": "µg/mL"}
    ]}
  ]
}
